We go through 94 variants from the supplement of paper PMC10567573.

First the molecules themselves.
B1: ZNF277 (parent)
chain: ILREELQKQRLREILEQQQQERND
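Also: lentivirally expressed fusions sorted by FACS into six bins by GFP to DsRed ratio, PSI derived from sequencing read proportions per bin multiplied by bin number.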

The data set covers variants of B1. The experiment in a line: protein stability index of a GFP-peptide fusion (GPS, HEK-293T) (PSI 1-6); higher = more stable. To be noted: c terminus: a fixed tail appended.
As to ILRERLQKQRLREILEQQQQERND [E5R], the protein stability index was 3.68. Under ILREQLQKQRLREILEQQQQERND [E5Q] stands 4.17. To ILREWLQKQRLREILEQQQQERND [E5W] belongs 2.84; to ILREDLQKQRLREILEQQQQERND [E5D], 4.76; to IDREELQKQRLREILEQQQQERND [L2D], 5.63. Under IHREELQKQRLREILEQQQQERND [L2H] stands 5.24; under IRREELQKQRLREILEQQQQERND [L2R], 5.03; under IEREELQKQRLREILEQQQQERND [L2E], 5.51. On to ITREELQKQRLREILEQQQQERND [L2T], for which the protein stability index stood at 5.04. Take IYREELQKQRLREILEQQQQERND [L2Y]: the protein stability index is 4.81. Regarding IQREELQKQRLREILEQQQQERND [L2Q], the protein stability index amounted to 5.61. IAREELQKQRLREILEQQQQERND [L2A]: the protein stability index is 5.13. IGREELQKQRLREILEQQQQERND [L2G]: the protein stability index worked out at 5.11. Regarding ISREELQKQRLREILEQQQQERND [L2S], the protein stability index worked out at 5.33.

For the variant IKREELQKQRLREILEQQQQERND [L2K], the protein stability index came to 5.45. Under IPREELQKQRLREILEQQQQERND [L2P] stands 4.86; under IMREELQKQRLREILEQQQQERND [L2M], 4.21; under IWREELQKQRLREILEQQQQERND [L2W], 3.79. On to IIREELQKQRLREILEQQQQERND [L2I], for which the protein stability index was 4.41. On to IFREELQKQRLREILEQQQQERND [L2F], for which the protein stability index turned out to be 4.55. To IVREELQKQRLREILEQQQQERND [L2V] belongs 4.73. To INREELQKQRLREILEQQQQERND [L2N] belongs 5.57. ICREELQKQRLREILEQQQQERND [L2C]: the protein stability index came to 3.94. Turning to ILREEEQKQRLREILEQQQQERND [L6E], the protein stability index was determined as 5.19. With ILREEIQKQRLREILEQQQQERND [L6I], the protein stability index is 4.56. Under ILREERQKQRLREILEQQQQERND [L6R] stands 4.88; under ILREEMQKQRLREILEQQQQERND [L6M], 3.89; under ILREEDQKQRLREILEQQQQERND [L6D], 4.76. In the case of ILREEFQKQRLREILEQQQQERND [L6F], the protein stability index came out at 4.49. To ILREEHQKQRLREILEQQQQERND [L6H] belongs 4.59. Under ILREENQKQRLREILEQQQQERND [L6N] stands 4.65.

For ILREEQQKQRLREILEQQQQERND [L6Q], the protein stability index turned out to be 3.69. Under ILREESQKQRLREILEQQQQERND [L6S] stands 4.44. To ILREEKQKQRLREILEQQQQERND [L6K] belongs 4.96. Under ILREEPQKQRLREILEQQQQERND [L6P] stands 5.5; under ILREEVQKQRLREILEQQQQERND [L6V], 4.65; under ILREEAQKQRLREILEQQQQERND [L6A], 4.4. In the case of ILREECQKQRLREILEQQQQERND [L6C], the protein stability index is 4.18.

For the variant ILREETQKQRLREILEQQQQERND [L6T], the protein stability index turned out to be 4.75. In the case of ILREEWQKQRLREILEQQQQERND [L6W], the protein stability index was determined as 5.58.

For the variant ILREEGQKQRLREILEQQQQERND [L6G], the protein stability index came out at 4.9. Under ILREEYQKQRLREILEQQQQERND [L6Y] stands 4.22; under ILRRELQKQRLREILEQQQQERND [E4R], 3.61; under ILRSELQKQRLREILEQQQQERND [E4S], 4.18. Take ILRKELQKQRLREILEQQQQERND [E4K]: the protein stability index stood at 3.22.

Turning to ILRNELQKQRLREILEQQQQERND [E4N], the protein stability index was 4.16. Under ILRIELQKQRLREILEQQQQERND [E4I] stands 3.79; under ILRTELQKQRLREILEQQQQERND [E4T], 4.42. ILRWELQKQRLREILEQQQQERND [E4W]: the protein stability index was determined as 3.28.

Consider ILRFELQKQRLREILEQQQQERND [E4F], for which the protein stability index was 2.99. On to ILRDELQKQRLREILEQQQQERND [E4D], for which the protein stability index turned out to be 4.06. As for ILRHELQKQRLREILEQQQQERND [E4H], the protein stability index came to 3.95.

Consider ILRMELQKQRLREILEQQQQERND [E4M], for which the protein stability index stood at 3.75. To ILRQELQKQRLREILEQQQQERND [E4Q] belongs 3.99; to ILRAELQKQRLREILEQQQQERND [E4A], 3.85. Under ILRVELQKQRLREILEQQQQERND [E4V] stands 3.88; under ILRPELQKQRLREILEQQQQERND [E4P], 4.95; under ILRGELQKQRLREILEQQQQERND [E4G], 4.89. To ILRLELQKQRLREILEQQQQERND [E4L] belongs 3.05; to ILRYELQKQRLREILEQQQQERND [E4Y], 3.38; to ILPEELQKQRLREILEQQQQERND [R3P], 5.31. With ILAEELQKQRLREILEQQQQERND [R3A], the protein stability index stood at 4.3. Under ILLEELQKQRLREILEQQQQERND [R3L] stands 2.82; under ILIEELQKQRLREILEQQQQERND [R3I], 2.91; under ILYEELQKQRLREILEQQQQERND [R3Y], 3.64.

On to ILHEELQKQRLREILEQQQQERND [R3H], for which the protein stability index stood at 4.46. To ILKEELQKQRLREILEQQQQERND [R3K] belongs 4.64; to ILMEELQKQRLREILEQQQQERND [R3M], 3.68; to ILFEELQKQRLREILEQQQQERND [R3F], 3.4.

Take ILWEELQKQRLREILEQQQQERND [R3W]: the protein stability index is 2.56. In the case of ILNEELQKQRLREILEQQQQERND [R3N], the protein stability index turned out to be 4.37.

On to ILQEELQKQRLREILEQQQQERND [R3Q], for which the protein stability index was 4.69.

On to ILDEELQKQRLREILEQQQQERND [R3D], for which the protein stability index came to 5.06. To ILGEELQKQRLREILEQQQQERND [R3G] belongs 5.05; to ILEEELQKQRLREILEQQQQERND [R3E], 5.21; to ILTEELQKQRLREILEQQQQERND [R3T], 4.36.

As for ILVEELQKQRLREILEQQQQERND [R3V], the protein stability index is 4.01. Take ILSEELQKQRLREILEQQQQERND [R3S]: the protein stability index came to 4.96. To NLREELQKQRLREILEQQQQERND [I1N] belongs 4.99; to TLREELQKQRLREILEQQQQERND [I1T], 5.08; to LLREELQKQRLREILEQQQQERND [I1L], 4.09.

As for VLREELQKQRLREILEQQQQERND [I1V], the protein stability index was determined as 4.4. With YLREELQKQRLREILEQQQQERND [I1Y], the protein stability index was determined as 4.75. Consider MLREELQKQRLREILEQQQQERND [I1M], for which the protein stability index came out at 4.66. To KLREELQKQRLREILEQQQQERND [I1K] belongs 4.24; to ELREELQKQRLREILEQQQQERND [I1E], 4.93. Under ALREELQKQRLREILEQQQQERND [I1A] stands 4.59; under WLREELQKQRLREILEQQQQERND [I1W], 4.19; under PLREELQKQRLREILEQQQQERND [I1P], 4.73. Regarding HLREELQKQRLREILEQQQQERND [I1H], the protein stability index is 4.89. Under SLREELQKQRLREILEQQQQERND [I1S] stands 5.12; under GLREELQKQRLREILEQQQQERND [I1G], 4.93. Turning to FLREELQKQRLREILEQQQQERND [I1F], the protein stability index is 4.43. To CLREELQKQRLREILEQQQQERND [I1C] belongs 4.79.
